From publication PMC9352680, “A comprehensive thermodynamic model for RNA binding by the Saccharomyces cerevisiae Pumilio protein PUF4”

T1: PUF4 RNA-binding domain (Saccharomyces cerevisiae, UniProt P25339 537-888)
T1 sequence: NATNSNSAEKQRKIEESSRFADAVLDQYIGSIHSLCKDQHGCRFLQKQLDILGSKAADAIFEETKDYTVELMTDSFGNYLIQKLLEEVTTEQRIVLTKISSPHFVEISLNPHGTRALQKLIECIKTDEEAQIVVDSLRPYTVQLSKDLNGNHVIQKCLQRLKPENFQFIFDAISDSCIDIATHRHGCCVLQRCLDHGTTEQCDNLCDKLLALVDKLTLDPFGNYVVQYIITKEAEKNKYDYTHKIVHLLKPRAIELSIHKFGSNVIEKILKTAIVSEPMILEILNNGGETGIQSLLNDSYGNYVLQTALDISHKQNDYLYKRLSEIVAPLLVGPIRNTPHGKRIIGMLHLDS


target: T1, PUF4 RNA-binding domain; experiment: Mg; RNA-MaP; 20 mM Na-HEPES pH 7.4, 30 mM KOAc, 0.75 mM MgCl2, 0.1% Tween-20, 5% glycerol, 0.1 mg/mL BSA, 2 mM DTT; 25 C; 0.0125-409.6 nM protein; conditions: tags: N-His6-TEV cleaved; C-SNAP kept, Cy3B-labelled; label: tethered on chip by stalled RNA polymerase

Binder	Kd [µM]
UCUCUUUGUAUAACAUCUCUU (ssRNA) [Ib_S1_P4E.1_K4.1_C4.1_H4.1_A4.1_[T7A]_F4.1_[T8C]_T4.1]	0.0118
UCUCUUUGUUUAUUAUCUCUU (ssRNA) [Ia_S1_P4E.1_K4.1_C4.1_H4.1_[A4T]_A4.1_F4.1_T4.1]	0.0115
UCUCUUUGUAUACAAUCUCUU (ssRNA) [Ib_S1_P4E.1_K4.1_C4.1_H4.1_A4.1_[T7C]_F4.1_[T8A]_T4.1]	0.0448
UCUCUUUGUAUACCAUCUCUU (ssRNA) [Ib_S1_P4E.1_K4.1_C4.1_H4.1_A4.1_[T7C]_F4.1_[T8C]_T4.1]	0.0131
Ic_S4_P4E.1_K4.1_C4.1_H4.1_A4.1_[A6C]_[T7G]_F4.1_[T8A]_[A9C]_T4.1 (ssRNA) RNA: UUUGACAACUGAUCGUUCUUUCUUGUAUCGACUUCUUUCUCGAUCAGUUGUCUUU	> 2.3
Ic_S4_P4E.1_K4.1_C4.1_H4.1_A4.1_[A6T]_[T7A]_F4.1_[T8C]_T4.1 (ssRNA) RNA: UUUGACAACUGAUCGUUCUUUCUUGUAUUACAUUCUUUCUCGAUCAGUUGUCUUU	0.436
Ic_S4_P4E.1_K4.1_C4.1_H4.1_A4.1_[A6T]_F4.1_[A9T]_T4.1 (ssRNA) RNA: UUUGACAACUGAUCGUUCUUUCUUGUAUUUUUUUCUUUCUCGAUCAGUUGUCUUU	0.0121
Ic_S4_P4E.1_K4.1_C4.1_H4.1_A4.1_[T7G]_F4.1_[T8C]_[A9C]_T4.1 (ssRNA) RNA: UUUGACAACUGAUCGUUCUUUCUUGUAUAGCCUUCUUUCUCGAUCAGUUGUCUUU	0.0873
Ic_S4_P4E.1_K4.1_C4.1_H4.1_A4.1_[A6T]_[T7C]_F4.1_[A9G]_T4.1 (ssRNA) RNA: UUUGACAACUGAUCGUUCUUUCUUGUAUUCUGUUCUUUCUCGAUCAGUUGUCUUU	0.0204
Ic_S4_P4E.1_K4.1_C4.1_H4.1_A4.1_[A6T]_[T7G]_F4.1_[T8C]_[A9G]_T4.1 (ssRNA) RNA: UUUGACAACUGAUCGUUCUUUCUUGUAUUGCGUUCUUUCUCGAUCAGUUGUCUUU	0.593
Ic_S4_P4E.1_K4.1_C4.1_H4.1_A4.1_[A6T]_[T7C]_F4.1_[A9T]_T4.1 (ssRNA) RNA: UUUGACAACUGAUCGUUCUUUCUUGUAUUCUUUUCUUUCUCGAUCAGUUGUCUUU	0.0278
Ic_S4_P4E.1_K4.1_C4.1_H4.1_A4.1_[A6T]_F4.1_[T8C]_[A9C]_T4.1 (ssRNA) RNA: UUUGACAACUGAUCGUUCUUUCUUGUAUUUCCUUCUUUCUCGAUCAGUUGUCUUU	0.0745
Ic_S4_P4E.1_K4.1_C4.1_H4.1_A4.1_[A6C]_F4.1_[T8A]_[A9C]_T4.1 (ssRNA) RNA: UUUGACAACUGAUCGUUCUUUCUUGUAUCUACUUCUUUCUCGAUCAGUUGUCUUU	0.0341
Ic_S4_P4E.1_K4.1_C4.1_H4.1_A4.1_[A6C]_F4.1_[T8A]_[A9G]_T4.1 (ssRNA) RNA: UUUGACAACUGAUCGUUCUUUCUUGUAUCUAGUUCUUUCUCGAUCAGUUGUCUUU	0.0404
Ic_S4_P4E.1_K4.1_C4.1_H4.1_A4.1_[A6T]_[T7A]_F4.1_[T8G]_[A9C]_T4.1 (ssRNA) RNA: UUUGACAACUGAUCGUUCUUUCUUGUAUUAGCUUCUUUCUCGAUCAGUUGUCUUU	0.794
Ic_S4_P4E.1_K4.1_C4.1_H4.1_A4.1_[A6C]_[T7C]_F4.1_[T8C]_[A9G]_T4.1 (ssRNA) RNA: UUUGACAACUGAUCGUUCUUUCUUGUAUCCCGUUCUUUCUCGAUCAGUUGUCUUU	0.449
Ic_S4_P4E.1_K4.1_C4.1_H4.1_A4.1_[A6T]_F4.1_[T8A]_T4.1 (ssRNA) RNA: UUUGACAACUGAUCGUUCUUUCUUGUAUUUAAUUCUUUCUCGAUCAGUUGUCUUU	0.0211
Ic_S4_P4E.1_K4.1_C4.1_H4.1_A4.1_[A6C]_[T7C]_F4.1_[T8A]_T4.1 (ssRNA) RNA: UUUGACAACUGAUCGUUCUUUCUUGUAUCCAAUUCUUUCUCGAUCAGUUGUCUUU	0.577
Ic_S4_P4E.1_K4.1_C4.1_H4.1_A4.1_[A6C]_F4.1_[T8C]_[A9T]_T4.1 (ssRNA) RNA: UUUGACAACUGAUCGUUCUUUCUUGUAUCUCUUUCUUUCUCGAUCAGUUGUCUUU	0.0167
Ic_S4_P4E.1_K4.1_C4.1_H4.1_A4.1_[A6C]_F4.1_[T8C]_[A9G]_T4.1 (ssRNA) RNA: UUUGACAACUGAUCGUUCUUUCUUGUAUCUCGUUCUUUCUCGAUCAGUUGUCUUU	0.0311
Ic_S4_P4E.1_K4.1_C4.1_H4.1_A4.1_[A6T]_F4.1_[T8G]_[A9T]_T4.1 (ssRNA) RNA: UUUGACAACUGAUCGUUCUUUCUUGUAUUUGUUUCUUUCUCGAUCAGUUGUCUUU	0.0461
Ic_S4_P4E.1_K4.1_C4.1_H4.1_A4.1_[T7G]_F4.1_[T8C]_[A9T]_T4.1 (ssRNA) RNA: UUUGACAACUGAUCGUUCUUUCUUGUAUAGCUUUCUUUCUCGAUCAGUUGUCUUU	0.0495
Ic_S4_P4E.1_K4.1_C4.1_H4.1_A4.1_[A6C]_F4.1_[T8C]_[A9C]_T4.1 (ssRNA) RNA: UUUGACAACUGAUCGUUCUUUCUUGUAUCUCCUUCUUUCUCGAUCAGUUGUCUUU	0.0315
Ic_S4_P4E.1_K4.1_C4.1_H4.1_A4.1_[A6C]_[T7A]_F4.1_[T8A]_[A9C]_T4.1 (ssRNA) RNA: UUUGACAACUGAUCGUUCUUUCUUGUAUCAACUUCUUUCUCGAUCAGUUGUCUUU	0.477
Ic_S4_P4E.1_K4.1_C4.1_H4.1_A4.1_[A6T]_[T7G]_F4.1_[A9G]_T4.1 (ssRNA) RNA: UUUGACAACUGAUCGUUCUUUCUUGUAUUGUGUUCUUUCUCGAUCAGUUGUCUUU	0.0751

Binder	Kd [µM]
Ic_S4_P4E.1_K4.1_C4.1_H4.1_A4.1_[A6T]_[T7A]_F4.1_[T8C]_[A9C]_T4.1 (ssRNA) RNA: UUUGACAACUGAUCGUUCUUUCUUGUAUUACCUUCUUUCUCGAUCAGUUGUCUUU	0.191
Ic_S4_P4E.1_K4.1_C4.1_H4.1_A4.1_[A6C]_F4.1_[T8G]_[A9C]_T4.1 (ssRNA) RNA: UUUGACAACUGAUCGUUCUUUCUUGUAUCUGCUUCUUUCUCGAUCAGUUGUCUUU	0.052
Ic_S4_P4E.1_K4.1_C4.1_H4.1_A4.1_[A6T]_[T7A]_F4.1_[A9C]_T4.1 (ssRNA) RNA: UUUGACAACUGAUCGUUCUUUCUUGUAUUAUCUUCUUUCUCGAUCAGUUGUCUUU	0.0383
Ic_S4_P4E.1_K4.1_C4.1_H4.1_A4.1_[A6T]_F4.1_[T8G]_[A9G]_T4.1 (ssRNA) RNA: UUUGACAACUGAUCGUUCUUUCUUGUAUUUGGUUCUUUCUCGAUCAGUUGUCUUU	0.23
Ic_S4_P4E.1_K4.1_C4.1_H4.1_A4.1_[A6C]_[T7C]_F4.1_[T8C]_[A9C]_T4.1 (ssRNA) RNA: UUUGACAACUGAUCGUUCUUUCUUGUAUCCCCUUCUUUCUCGAUCAGUUGUCUUU	0.403
Ic_S4_P4E.1_K4.1_C4.1_H4.1_A4.1_[A6T]_[T7G]_F4.1_[T8G]_[A9T]_T4.1 (ssRNA) RNA: UUUGACAACUGAUCGUUCUUUCUUGUAUUGGUUUCUUUCUCGAUCAGUUGUCUUU	1.31
Ic_S4_P4E.1_K4.1_C4.1_H4.1_A4.1_[T7C]_F4.1_[T8A]_[A9C]_T4.1 (ssRNA) RNA: UUUGACAACUGAUCGUUCUUUCUUGUAUACACUUCUUUCUCGAUCAGUUGUCUUU	0.0511
Ic_S4_P4E.1_K4.1_C4.1_H4.1_A4.1_[A6T]_[T7C]_F4.1_[T8C]_[A9T]_T4.1 (ssRNA) RNA: UUUGACAACUGAUCGUUCUUUCUUGUAUUCCUUUCUUUCUCGAUCAGUUGUCUUU	0.0619
Ic_S4_P4E.1_K4.1_C4.1_H4.1_A4.1_[A6T]_[T7C]_F4.1_[T8A]_[A9T]_T4.1 (ssRNA) RNA: UUUGACAACUGAUCGUUCUUUCUUGUAUUCAUUUCUUUCUCGAUCAGUUGUCUUU	0.113
Ic_S4_P4E.1_K4.1_C4.1_H4.1_A4.1_[A6C]_[T7C]_F4.1_[A9G]_T4.1 (ssRNA) RNA: UUUGACAACUGAUCGUUCUUUCUUGUAUCCUGUUCUUUCUCGAUCAGUUGUCUUU	0.0299
Ic_S4_P4E.1_K4.1_C4.1_H4.1_A4.1_[A6T]_[T7C]_F4.1_[T8A]_[A9C]_T4.1 (ssRNA) RNA: UUUGACAACUGAUCGUUCUUUCUUGUAUUCACUUCUUUCUCGAUCAGUUGUCUUU	0.425
Ic_S4_P4E.1_K4.1_C4.1_H4.1_A4.1_[A6T]_[T7C]_F4.1_[A9C]_T4.1 (ssRNA) RNA: UUUGACAACUGAUCGUUCUUUCUUGUAUUCUCUUCUUUCUCGAUCAGUUGUCUUU	0.0344
Ic_S4_P4E.1_K4.1_C4.1_H4.1_A4.1_[T7A]_F4.1_[T8C]_[A9G]_T4.1 (ssRNA) RNA: UUUGACAACUGAUCGUUCUUUCUUGUAUAACGUUCUUUCUCGAUCAGUUGUCUUU	0.0404
Ic_S4_P4E.1_K4.1_C4.1_H4.1_A4.1_[A6C]_[T7A]_F4.1_[A9G]_T4.1 (ssRNA) RNA: UUUGACAACUGAUCGUUCUUUCUUGUAUCAUGUUCUUUCUCGAUCAGUUGUCUUU	0.0101
Ic_S4_P4E.1_K4.1_C4.1_H4.1_A4.1_[A6T]_[T7C]_F4.1_[T8G]_[A9C]_T4.1 (ssRNA) RNA: UUUGACAACUGAUCGUUCUUUCUUGUAUUCGCUUCUUUCUCGAUCAGUUGUCUUU	0.417
Ic_S4_P4E.1_K4.1_C4.1_H4.1_A4.1_[A6T]_[T7G]_F4.1_[T8C]_[A9C]_T4.1 (ssRNA) RNA: UUUGACAACUGAUCGUUCUUUCUUGUAUUGCCUUCUUUCUCGAUCAGUUGUCUUU	0.537
Ic_S4_P4E.1_K4.1_C4.1_H4.1_A4.1_[A6C]_F4.1_[T8G]_[A9G]_T4.1 (ssRNA) RNA: UUUGACAACUGAUCGUUCUUUCUUGUAUCUGGUUCUUUCUCGAUCAGUUGUCUUU	0.0895
Ic_S4_P4E.1_K4.1_C4.1_H4.1_A4.1_[A6C]_[T7A]_F4.1_[T8A]_[A9T]_T4.1 (ssRNA) RNA: UUUGACAACUGAUCGUUCUUUCUUGUAUCAAUUUCUUUCUCGAUCAGUUGUCUUU	0.0505
Ic_S4_P4E.1_K4.1_C4.1_H4.1_A4.1_[A6T]_[T7C]_F4.1_[T8C]_[A9G]_T4.1 (ssRNA) RNA: UUUGACAACUGAUCGUUCUUUCUUGUAUUCCGUUCUUUCUCGAUCAGUUGUCUUU	0.159
Ic_S4_P4E.1_K4.1_C4.1_H4.1_A4.1_[A6T]_[T7A]_F4.1_[T8A]_[A9T]_T4.1 (ssRNA) RNA: UUUGACAACUGAUCGUUCUUUCUUGUAUUAAUUUCUUUCUCGAUCAGUUGUCUUU	0.095
Ic_S4_P4E.1_K4.1_C4.1_H4.1_A4.1_[T7C]_F4.1_[T8G]_[A9T]_T4.1 (ssRNA) RNA: UUUGACAACUGAUCGUUCUUUCUUGUAUACGUUUCUUUCUCGAUCAGUUGUCUUU	0.0275
Ic_S4_P4E.1_K4.1_C4.1_H4.1_A4.1_[A6C]_[T7C]_F4.1_[T8G]_[A9T]_T4.1 (ssRNA) RNA: UUUGACAACUGAUCGUUCUUUCUUGUAUCCGUUUCUUUCUCGAUCAGUUGUCUUU	0.172
UCUCUUUGUAUAAAAUCUCUU (ssRNA) [Ib_S1_P4E.1_K4.1_C4.1_H4.1_A4.1_[T7A]_F4.1_[T8A]_T4.1]	0.0221
UCUCUUUGUACAUUGUCUCUU (ssRNA) [Ic_S1_P4E.1_K4.1_C4.1_H4.1_A4.1_[T5C]_F4.1_[A9G]_T4.1]	0.00375
